Molecular target: CEACAM1 (carcinoembryonic antigen-related cellular adhesion molecule 1) on human CD4+ T lymphocytes and Jurkat cells (human) (UniProt P13688)
Assay: cell-based or functional assay

Sequence of UniProt P13688 (P13688 35-526): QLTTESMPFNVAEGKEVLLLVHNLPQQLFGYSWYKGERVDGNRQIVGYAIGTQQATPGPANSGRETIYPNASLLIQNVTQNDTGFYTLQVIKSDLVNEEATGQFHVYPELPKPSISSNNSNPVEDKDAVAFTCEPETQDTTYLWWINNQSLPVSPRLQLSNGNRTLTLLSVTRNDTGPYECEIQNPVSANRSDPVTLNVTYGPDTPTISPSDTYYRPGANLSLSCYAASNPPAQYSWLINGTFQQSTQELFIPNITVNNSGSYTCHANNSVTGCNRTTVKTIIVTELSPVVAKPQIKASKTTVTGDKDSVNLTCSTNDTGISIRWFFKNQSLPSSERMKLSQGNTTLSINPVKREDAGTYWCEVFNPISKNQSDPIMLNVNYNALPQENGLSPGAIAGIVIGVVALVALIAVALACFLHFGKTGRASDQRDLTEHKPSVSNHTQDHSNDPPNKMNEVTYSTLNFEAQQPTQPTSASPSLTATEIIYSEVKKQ

Row | Substance | reduction of IL-2-dependent CD4+ T lymphocyte proliferation at MOI=50, relative to Opa50-expressing gonococci | reduction of IL-2-dependent CD4+ T lymphocyte proliferation at MOI=100, relative to Opa50-expressing gonococci | reduction of IL-2-dependent CD4+ T lymphocyte proliferation at MOI=200, relative to Opa50-expressing gonococci | lowest multiplicity of infection at which inhibition of Jurkat proliferation was apparent (MOI (bacteria/cell))
1 | Opa52 protein of Neisseria gonorrhoeae strain MS11, expressed on gonococcal strain N309 (ligand) | 34% | 51% | 76% | –
2 | Opa57 protein of Neisseria gonorrhoeae strain MS11, expressed on gonococcal strain N313 (ligand) | – | – | – | 25

From patent US20030022292A1
